These results are taken from paper PMC10681739, “High-throughput data and modeling reveal insights into the mechanisms of cooperative DNA-binding by transcription factor proteins”.

First the molecules themselves.
B1: Table S2 A row 553 (dsDNA)
DNA 1: CCTTGCAGCAACGGATGTGGGTTTTTTTTTTTCTTT
DNA 2: AAAGAAAAAAAAAAACCCACATCCGTTGCTGCAAGG
B2: Table S2 A row 332 (dsDNA)
DNA 1: AACAGGAAGTGGTCTTAGAGATCATGCGGTTCAGAG
DNA 2: CTCTGAACCGCATGATCTCTAAGACCACTTCCTGTT
B3: Table S2 A row 1210 (dsDNA)
DNA 1: CGGGAGGGGCAGGAAGCGGACTGCGGTGGGGAAGGG
DNA 2: CCCTTCCCCACCGCAGTCCGCTTCCTGCCCCTCCCG
B4: Table S2 A row 930 (dsDNA)
DNA 1: AGCTCCACCGGAAACGGCCTGGCCGCAGCCAATCAG
DNA 2: CTGATTGGCTGCGGCCAGGCCGTTTCCGGTGGAGCT
B5: Table S2 A row 271 (dsDNA)
DNA 1: CACCCCCCCAGTGCAGGAAGTGGTTTTCGAGGGCAG
DNA 2: CTGCCCTCGAAAACCACTTCCTGCACTGGGGGGGTG
B6: Table S2 A row 966 (dsDNA)
DNA 1: GGCCTTCATTACACAGGATGCGGTTGAAATGCATCA
DNA 2: TGATGCATTTCAACCGCATCCTGTGTAATGAAGGCC
B7: Table S2 A row 513 (dsDNA)
DNA 1: AGGACGGGCGGAAGTGGCTGCGGTGGATGGTGGGAG
DNA 2: CTCCCACCATCCACCGCAGCCACTTCCGCCCGTCCT
B8: Table S2 A row 288 (dsDNA)
DNA 1: CATAGACCGGATGCCTCGTCAACCACAGAAACCAAT
DNA 2: ATTGGTTTCTGTGGTTGACGAGGCATCCGGTCTATG
B9: Table S2 A row 702 (dsDNA)
DNA 1: CACCTCCTCTCCGGATGCGGTTTGTTCTGCTTGTAG
DNA 2: CTACAAGCAGAACAAACCGCATCCGGAGAGGAGGTG
B10: Table S2 A row 911 (dsDNA)
DNA 1: TTACACAACAGGAAACTATGTTTAGCGGTTAATCCA
DNA 2: TGGATTAACCGCTAAACATAGTTTCCTGTTGTGTAA
B11: Table S2 A row 1174 (dsDNA)
DNA 1: CCTGCGGATCACGGAAGTGGCTGCGGTCGGCGCCAT
DNA 2: ATGGCGCCGACCGCAGCCACTTCCGTGATCCGCAGG
B12: Table S2 A row 1449 (dsDNA)
DNA 1: GGGTTGGGTGCCGGATGCGGTGAGTGAGGTTCTCAT
DNA 2: ATGAGAACCTCACTCACCGCATCCGGCACCCAACCC
B13: Table S2 A row 895 (dsDNA)
DNA 1: TCAAGTTTGGTAACAGGATGTGGTAGGAGGAACACA
DNA 2: TGTGTTCCTCCTACCACATCCTGTTACCAAACTTGA
B14: Table S2 A row 1234 (dsDNA)
DNA 1: GCTGGTATGGCAGGAAGTTTCTCACCACAGTATACT
DNA 2: AGTATACTGTGGTGAGAAACTTCCTGCCATACCAGC
B15: Table S2 A row 1548 (dsDNA)
DNA 1: TGCAGTCGTGAAAAAGGAAGTGGTTAAAGTGGCTAC
DNA 2: GTAGCCACTTTAACCACTTCCTTTTTCACGACTGCA
B16: Table S2 A row 1376 (dsDNA)
DNA 1: CTCTGGCAGGAAGCTCTGAGGGCTAAACCACAAAAA
DNA 2: TTTTTGTGGTTTAGCCCTCAGAGCTTCCTGCCAGAG
B17: Table S2 A row 1404 (dsDNA)
DNA 1: ATAGACTCAGGAAGTGATTGTGGTAAGATTCTATAT
DNA 2: ATATAGAATCTTACCACAATCACTTCCTGAGTCTAT
B18: Table S2 A row 658 (dsDNA)
DNA 1: AGCTAGGACAGGATGTGAAAACCACACTGACAAAGT
DNA 2: ACTTTGTCAGTGTGGTTTTCACATCCTGTCCTAGCT
B19: Table S2 A row 483 (dsDNA)
DNA 1: AACCAAACAGCCACAGGAAGTGGTTTCTGTGATTCA
DNA 2: TGAATCACAGAAACCACTTCCTGTGGCTGTTTGGTT
B20: Table S2 A row 99 (dsDNA)
DNA 1: CTTAGCACTTCAGCCGGAAACCACAGCATACATTTC
DNA 2: GAAATGTATGCTGTGGTTTCCGGCTGAAGTGCTAAG
B21: Table S2 A row 223 (dsDNA)
DNA 1: AGGGAACAGGAAATGCAAAAAACCACAAGGGACAAG
DNA 2: CTTGTCCCTTGTGGTTTTTTGCATTTCCTGTTCCCT
B22: Table S2 A row 338 (dsDNA)
DNA 1: GCCCAGGGCGGCCGGAAGTTTGCGGGGCGGGGCGGA
DNA 2: TCCGCCCCGCCCCGCAAACTTCCGGCCGCCCTGGGC
B23: Table S2 A row 1115 (dsDNA)
DNA 1: TCAATGACAGGAAGTTTTTAAACCACATACGGCTAA
DNA 2: TTAGCCGTATGTGGTTTAAAAACTTCCTGTCATTGA
B24: Table S2 A row 1302 (dsDNA)
DNA 1: AACAGACAGGATGTGGCCTCTGCCAAAACCACCATC
DNA 2: GATGGTGGTTTTGGCAGAGGCCACATCCTGTCTGTT
B25: Table S2 A row 1188 (dsDNA)
DNA 1: CCCACTGCGCCAGGATGTGGTCAGGTCGGTGACGTT
DNA 2: AACGTCACCGACCTGACCACATCCTGGCGCAGTGGG
B26: Table S2 A row 649 (dsDNA)
DNA 1: TCTGTCGTCCCACTTCCTGCTGCGGTTTCCACCTCG
DNA 2: CGAGGTGGAAACCGCAGCAGGAAGTGGGACGACAGA
B27: Table S2 A row 1263 (dsDNA)
DNA 1: TCACATTTTGCCGGATGTGGGTTGAGGGCATGCTGC
DNA 2: GCAGCATGCCCTCAACCCACATCCGGCAAAATGTGA
B28: Table S2 A row 397 (dsDNA)
DNA 1: AGGGGAGGAACCAGGAAGTTGTGGTAAACTGTAGCA
DNA 2: TGCTACAGTTTACCACAACTTCCTGGTTCCTCCCCT
B29: Table S2 A row 647 (dsDNA)
DNA 1: CCCAGCCCTGCTGCCGGATGTGGTGAGGCCCAGGTG
DNA 2: CACCTGGGCCTCACCACATCCGGCAGCAGGGCTGGG
B30: Table S2 A row 524 (dsDNA)
DNA 1: TATCTCCTATCTCCAGGAAGTGGTTAGCCCTAGGAG
DNA 2: CTCCTAGGGCTAACCACTTCCTGGAGATAGGAGATA
B31: Table S2 A row 489 (dsDNA)
DNA 1: TCTAAATCACTTCCTGTTACAGAAACCACAGGCCTG
DNA 2: CAGGCCTGTGGTTTCTGTAACAGGAAGTGATTTAGA
B32: Table S2 A row 1496 (dsDNA)
DNA 1: GCACTGTAGGCAGGATGTGGGCAGGGGAAACTCAGG
DNA 2: CCTGAGTTTCCCCTGCCCACATCCTGCCTACAGTGC
B33: Table S2 A row 517 (dsDNA)
DNA 1: GTTAGCGTGATCGGAGGATGTGGTTTTCCTCCCTCT
DNA 2: AGAGGGAGGAAAACCACATCCTCCGATCACGCTAAC
B34: Table S2 A row 462 (dsDNA)
DNA 1: TTCAACAGGATGTGGGAACTTGACTCTCGCCGCAAA
DNA 2: TTTGCGGCGAGAGTCAAGTTCCCACATCCTGTTGAA
B35: Table S2 A row 1142 (dsDNA)
DNA 1: ACAATAACAGGAAGTGGTGGGGACTGCGGTGACCTG
DNA 2: CAGGTCACCGCAGTCCCCACCACTTCCTGTTATTGT
B36: Table S2 A row 568 (dsDNA)
DNA 1: GTGGGGCAGGATGTGCTTGCCTGGCTGCGGTTGGAC
DNA 2: GTCCAACCGCAGCCAGGCAAGCACATCCTGCCCCAC
B37: Table S2 A row 435 (dsDNA)
DNA 1: GACACAAGAACAGCAGGATGTGGTCAGAGGCGTCGT
DNA 2: ACGACGCCTCTGACCACATCCTGCTGTTCTTGTGTC
B38: Table S2 A row 721 (dsDNA)
DNA 1: AGTGCAGAGTGGACAGGATGTGGTGGAGGTGAGAGA
DNA 2: TCTCTCACCTCCACCACATCCTGTCCACTCTGCACT
B39: Table S2 A row 456 (dsDNA)
DNA 1: AACAGGCAAAGGACAGGATGTGGTGAGCGTCGGCCC
DNA 2: GGGCCGACGCTCACCACATCCTGTCCTTTGCCTGTT
B40: Table S2 A row 309 (dsDNA)
DNA 1: CTTAGAGTACCAGGATGTGGTTTGGCCTGGGGGTGG
DNA 2: CCACCCCCAGGCCAAACCACATCCTGGTACTCTAAG
B41: Table S2 A row 1753 (dsDNA)
DNA 1: TGAAGCAGGCGGAAGTGCTGTGGTTTCTGGCGACTG
DNA 2: CAGTCGCCAGAAACCACAGCACTTCCGCCTGCTTCA
B42: Table S2 A row 1364 (dsDNA)
DNA 1: CTCAGGGTACCAGGATGTGGTTTAGCTTAGGGGTGG
DNA 2: CCACCCCTAAGCTAAACCACATCCTGGTACCCTGAG

The target in the data set is ETS1:RUNX1 (Homo sapiens, UniProt P14921;Q01196 full;full). In words: gcPBM; 1 nM ETS1 + 25 nM RUNX1, anti-ETS1 signal, normalised. As to conditions: tags: N-terminal GST (pDEST15), kept (PMC6008103); copies: 1;1; label: surface-attached array probe.
Chain of ETS1:RUNX1 (P14921 whole entry, chain 1 of 2): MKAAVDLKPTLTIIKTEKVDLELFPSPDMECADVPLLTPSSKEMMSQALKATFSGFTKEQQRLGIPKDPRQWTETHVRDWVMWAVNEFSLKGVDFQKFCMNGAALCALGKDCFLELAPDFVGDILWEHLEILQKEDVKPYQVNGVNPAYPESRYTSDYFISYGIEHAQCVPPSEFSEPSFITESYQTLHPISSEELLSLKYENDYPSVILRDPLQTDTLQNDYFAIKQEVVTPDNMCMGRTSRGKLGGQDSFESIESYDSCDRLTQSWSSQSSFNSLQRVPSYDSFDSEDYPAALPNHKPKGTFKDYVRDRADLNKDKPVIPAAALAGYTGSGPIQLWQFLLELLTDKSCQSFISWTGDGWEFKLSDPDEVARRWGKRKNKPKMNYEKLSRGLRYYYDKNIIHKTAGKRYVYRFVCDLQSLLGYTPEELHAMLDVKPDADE
Chain of ETS1:RUNX1 (Q01196 whole entry, chain 2 of 2): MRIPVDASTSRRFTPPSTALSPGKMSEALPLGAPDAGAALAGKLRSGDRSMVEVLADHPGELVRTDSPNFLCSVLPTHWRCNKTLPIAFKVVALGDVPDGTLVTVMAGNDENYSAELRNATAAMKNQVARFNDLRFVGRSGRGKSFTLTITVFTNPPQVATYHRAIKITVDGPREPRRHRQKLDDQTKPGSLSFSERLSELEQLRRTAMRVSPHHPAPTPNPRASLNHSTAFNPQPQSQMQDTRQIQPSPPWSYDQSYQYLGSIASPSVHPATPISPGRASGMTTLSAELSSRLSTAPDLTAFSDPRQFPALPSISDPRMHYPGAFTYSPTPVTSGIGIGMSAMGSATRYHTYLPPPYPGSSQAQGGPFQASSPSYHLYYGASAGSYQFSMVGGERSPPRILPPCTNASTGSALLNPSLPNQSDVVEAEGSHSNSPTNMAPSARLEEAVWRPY
Consider B1, for which the binding signal was 17200 PBM fluorescence, median of replicate spots.

In the case of B2, the binding signal is 10100 PBM fluorescence, median of replicate spots.

With B3, the binding signal is 16400 PBM fluorescence, median of replicate spots.

Consider B4, for which the binding signal was 16700 PBM fluorescence, median of replicate spots.

With B5, the binding signal was 14300 PBM fluorescence, median of replicate spots.

As to B6, the binding signal was 18400 PBM fluorescence, median of replicate spots.

For B7, the binding signal is 14100 PBM fluorescence, median of replicate spots.

B8: the binding signal was 11200 PBM fluorescence, median of replicate spots.

For the molecule B9, the binding signal was 12500 PBM fluorescence, median of replicate spots.

As to B10, the binding signal was 9030 PBM fluorescence, median of replicate spots.

On to B11, for which the binding signal is 11700 PBM fluorescence, median of replicate spots.

Consider B12, for which the binding signal is 10600 PBM fluorescence, median of replicate spots.

Regarding B13, the binding signal is 13400 PBM fluorescence, median of replicate spots.

Take B14: the binding signal is 8760 PBM fluorescence, median of replicate spots.

B15: the binding signal is 12100 PBM fluorescence, median of replicate spots.

B16: the binding signal is 8390 PBM fluorescence, median of replicate spots.

Take B17: the binding signal was 8880 PBM fluorescence, median of replicate spots.

B18: the binding signal was 11800 PBM fluorescence, median of replicate spots.

On to B19, for which the binding signal was 16800 PBM fluorescence, median of replicate spots.

On to B20, for which the binding signal is 10100 PBM fluorescence, median of replicate spots.

For the molecule B21, the binding signal is 18100 PBM fluorescence, median of replicate spots.

In the case of B22, the binding signal was 16100 PBM fluorescence, median of replicate spots.

Take B23: the binding signal was 9230 PBM fluorescence, median of replicate spots.

Consider B24, for which the binding signal is 12700 PBM fluorescence, median of replicate spots.

In the case of B25, the binding signal was 9170 PBM fluorescence, median of replicate spots.

For B26, the binding signal is 14900 PBM fluorescence, median of replicate spots.

Consider B27, for which the binding signal was 14600 PBM fluorescence, median of replicate spots.

For the molecule B28, the binding signal is 15800 PBM fluorescence, median of replicate spots.

Consider B29, for which the binding signal is 13200 PBM fluorescence, median of replicate spots.

Regarding B30, the binding signal is 9680 PBM fluorescence, median of replicate spots.

Turning to B31, the binding signal was 13000 PBM fluorescence, median of replicate spots.

With B32, the binding signal was 9520 PBM fluorescence, median of replicate spots.

For the molecule B33, the binding signal is 12400 PBM fluorescence, median of replicate spots.

B34: the binding signal is 13800 PBM fluorescence, median of replicate spots.

For the molecule B35, the binding signal was 16500 PBM fluorescence, median of replicate spots.

Consider B36, for which the binding signal is 11400 PBM fluorescence, median of replicate spots.

On to B37, for which the binding signal is 17700 PBM fluorescence, median of replicate spots.

Consider B38, for which the binding signal was 9260 PBM fluorescence, median of replicate spots.

In the case of B39, the binding signal was 10800 PBM fluorescence, median of replicate spots.

B40: the binding signal was 8550 PBM fluorescence, median of replicate spots.

Consider B41, for which the binding signal was 15300 PBM fluorescence, median of replicate spots.

Consider B42, for which the binding signal is 9440 PBM fluorescence, median of replicate spots.
